Consider three molecules from patent publication US10227617B2, “Sequestration of carbon dioxide with hydrogen to useful products” (UNIVERSITY OF GEORGIA RESEARCH FOUNDATION, INC., priority 2012, dated 2019).

For data set [1] the following is noted: at 65 C; cited from earlier work.
Substrate in data set [2]: C[C@H](O)CC(=O)SCCNC(=O)CCNC(=O)[C@H](O)C(C)(C)COP(=O)(O)OP(=O)(O)OC[C@H]1O[C@@H](n2cnc3c(N)ncnc32)[C@H](O)[C@@H]1OP(=O)(O)O
The experiment in a line: (S)-3-hydroxybutyryl-CoA dehydrogenase reaction of Msed_0399, NAD+ reduction at 340 nm. The note with it: other: Msed_0399 (3HB-CoA), 70° C., pH 7.0. The data set is classed as biochemical, Metallosphaera sedula. The text has this:
(§1) The crotonyl-CoA hydratase/(S)-3-hydroxybutyrl-CoA dehydrogenase activity of a polypeptide may be determined by routine methods known in the art. An example of such a polypeptide includes an amino acid sequence encoded by coding sequence Msed_0399 of Genbank accession NC_009440 and disclosed at SEQ ID NO:16.
(§2) Heterologous expression of M. sedula genes in E. coli. Msed_0406, Msed_1321, Msed_0399, and Msed_0656 were amplified from genomic DNA using primers from IDT Technologies (Coralville, Iowa). Msed_0406 was cloned into pET46-Ek/LIC with an N-terminal His6 tag, as described in Example 1. Msed_1321 was cloned with an N-terminal His6 tag into a modified pETA vector, into which the anaerobic hya promoter from E. coli had been inserted to allow for anaerobically-regulated expression (Sun et al., 2010. PLoS One 5:e10526). Msed_0399 was cloned into pET21b without a His-tag, and Msed_0656 was cloned into pCDF-Ek/LIC with an N-terminal His6 tag. All four constructs were individually cloned into NovaBlue GigaSingles E. coli competent cells and selected by growth on LB-agar supplemented with antibiotic. Sequences were confirmed by Eton Biosciences, Inc. (Durham, N.C.). Next, the plasmids were transformed into E. coli Rosetta 2 (DE3) cells for protein expression. Rosetta strains containing pET46-0406, pET21b-0399, and pCDF-0656 were grown and expressed aerobically at 37° C. for 16 h in Studier's auto-inducing medium ZYM-5052 (Studier, 2005. Protein Expression and Purification 41:207-234). Rosetta cells containing pETA-1321 plasmid were grown in a 2 L Applikon bioreactor (37° C., 800 rpm, pH 6.7, 0.5 slpm air) in Studier's non-inducing medium ZYM-505 with 0.5 mM FeCl3. […]
(§3) Crotonyl-CoA hydratase/(S)-3-Hydroxybutyryl-CoA dehydrogenase (Msed_0399). […] Enzyme activity was measured spectrophotometrically at 70° C. by following NAD^+ reduction at 340 nm (extinction coeffienct at 340 nm=[…]) (Berg et al., 2007. Science 318:1782-1786). […]

Substrate in data set [3]: C/C=C/C(=O)SCCNC(=O)CCNC(=O)[C@H](O)C(C)(C)COP(=O)(O)OP(=O)(O)OC[C@H]1O[C@@H](n2cnc3c(N)ncnc32)[C@H](O)[C@@H]1OP(=O)(O)O
The experiment in a line: crotonyl-CoA hydratase reaction of Msed_0399, NAD+ reduction at 340 nm. It counts as biochemical, Metallosphaera sedula. The note with it: other: Msed_0399 (C-CoA), 70° C., pH 7.0.
Text: as §1, §2, §3

Data set [4] can be described thus: (S)-3-Hydroxybutyryl-CoA dehydrogenase assay, NAD+ reduction at 340 nm. It counts as biochemical. As to conditions: 3HB-CoA, dehydrogenase reaction; 70° C. On the procedure:
(§4) Crotonyl-CoA hydratase/(S)-3-Hydroxybutyryl-CoA dehydrogenase (Msed_0399). The enzyme was purified first using a Q-sepharose HiLoad 16/10 anion exchange column (GE Healthcare). The protein was loaded onto the column with 20 mM Tris, pH 8.0, and eluted with 20 mM Tris, 1 M NaCl, pH 8.0 using a linear elution gradient. Fractions containing Msed_0399 were confirmed with SDS-PAGE, collected and dialyzed into buffer for size exclusion chromatography (50 mM potassium phosphate, 150 mM NaCl, pH 7.0). The partially-purified protein was further separated on a HiLoad 26/600 Superdex 200 PG column, and the elution fractions containing Msed_0399 were collected, concentrated, and dialyzed into reaction buffer (100 mM MOPS, pH 7.5), and then either stored at 4° C. for immediate use or mixed with glycerol to 20% and stored at −20° C. Enzyme activity was measured spectrophotometrically at 70° C. by following NAD^+ reduction at 340 nm (extinction coeffienct at 340 nm=[…]) (Berg et al., 2007. Science 318:1782-1786). The assay mixture contained 20 mM MOPS (pH 7.0), 5 mM MgCl2, 2 mM NAD^+, 0.5 mM crotonyl-CoA or (S)-3-hydroxybutyryl-CoA, and purified enzyme. The reaction mixture was preheated for 2 min at 70° C. and the reaction initiated by addition of substrate.

Data set [5] is described as follows: Crotonyl-CoA hydratase assay, NAD+ reduction at 340 nm. As to conditions: C-CoA, hydratase reaction; 70° C. The data set is classed as biochemical. As to the method:
as §4

Data set [6] can be described thus: Acetoacetyl-CoA β-ketothiolase discontinuous DTNB assay. It counts as biochemical. The note with it: 70° C.
Substrate in data set [7]: CC(=O)CC(=O)SCCNC(=O)CCNC(=O)[C@H](O)C(C)(C)COP(=O)(O)OP(=O)(O)OC[C@H]1O[C@@H](n2cnc3c(N)ncnc32)[C@H](O)[C@@H]1OP(=O)(O)O
The experiment in a line: purified protein, by the assay type. As to conditions: other: Msed_0656, 70° C., pH 7.5; 70.0 °C.

Take `O=C(O)O` [carbonic acid]: the “apparent pKa of the ionization to bicarbonate” value in data set [1] is “about 6.3”.

B1: Metallosphaera sedula crotonyl-CoA hydratase/(S)-3-hydroxybutyryl-CoA dehydrogenase Msed_0399, SEQ ID NO:16, recombinant (Metallosphaera sedula DSM 5348) (protein)
chain: MKVTVIGSGVMGHGIAELAAIAGNEVWMNDISTEILQQAMERIKWSLSKLRESGSLKEGVEQVLARIHPETDQAQALKGSDFVIEAVKEDLELKRTIFRNAEAHASPSAVLATNTSSLPISEIASVLKSPQRVVGMHFFNPPVLMPLVEIVRGKDTSDEVVKTTAEMAKSMNKETIVVKDVPGFFVNRVLLRIMEAGCYLVEKGIASIQEVDSSAIEELGFPMGVFLLADYTGLDIGYSVWKAVTARGFKAFPCSSTEKLVSQGKLGVKSGSGYYQYPSPGKFVRPTLPSTSKKLGRYLISPAVNEVSYLLREGIVGKDDAEKGCVLGLGLPKGILSYADEIGIDVVVNTLEEMRQTSGMDHYSPDPLLLSMVKEGKLGRKSGQGFHTYAHEEAKYSTIVVRVEPPLAWIVLNRPTRYNAINGDMIREINQALDSLEEREDVRVIAITGQGRVFSAGADVTEFGSLTPVKAMIASRKFHEVFMKIQFLTKPVIAVINGLALGGGMELALSADFRVASKTAEMGQPEINLGLIPGGGGTQRLSRLSGRKGLELVLTGRRVKAEEAYRLGIVEFLAEPEELESEVRKLANAIAEKSPLAVASAKLAYKLGEETHIWTGTSLEASLFGLLFSTKDFEEGVRAFLEKRKPNFRGE
For B1, the Km in data set [2] worked out at 60 µM; in data set [3] it was 70 µM. In addition, the Vmax in data set [2] turned out to be 16 µmol/min/mg; in data set [3] it was 20 µmol/min/mg; in data set [4] it was 16 µmol/min/mg; in data set [5] it was 20 µmol/min/mg. The kcat in data set [2] amounted to 15 s⁻¹; in data set [3], 19 s⁻¹.

B2: Metallosphaera sedula acetoacetyl-CoA β-ketothiolase Msed_0656, SEQ ID NO:17, recombinant (Metallosphaera sedula DSM 5348) (protein)
chain: MPDVYIVSAVRTPIGRFGGSLKSVKPQMLGAIAIKEALRRANTDPSRVELTIMGNVLRSGHGQDLARQAALLAGIPWEVDGYCVDMVCSSGMMGVTNAAQMIKSGDADVVVAGGMESMSQSMLAVNSEVRWGVKFLSGKSLNFIDTMLVDGLTDPFNLKLMGQEADMVARERDISRRELDEVAFESHRRAHQAWEKGLFKSEVIPVNLDEGKLERDEGIRPDTTMEKLSSLKPAFTENGYHTAGNSSQISDGAVAMVLMSEKAVKEFGVDPVAKILGYSWVGIESWRFTEAPLYSVRKLLTRLNMNITQFDYFENNEAFAVNNVLFHRYLGVPYDQLNVFGGAIALGHPIGASGARIMVTLLNVLSKMNATRGIASICHGVGGSTAIALELLRPL
Regarding B2, the Vmax in data set [6] was determined as 1400 µmol/min/mg. In data set [7], the Km came to 180 µM, the Vmax worked out at 1400 µmol/min/mg and the kcat worked out at 1000 s⁻¹.
